The target in experiment [1] is GST fusion of the VGLUT1 C-terminus lacking both PP domains (rat). As to the kind of experiment: pull-down; GST fusions of the VGLUT1 C-terminus on glutathione sepharose beads, incubated with extracts of COS7 cells transfected with myc-Lyn (2% TX-100); detected with antibody to myc, band intensity normalised to VG1.
Experiment [2] concerns the target GST fusion of the VGLUT1 C-terminus lacking the second PP domain (rat). The description is as above.
For experiment [3], the target named is GST fusion of the VGLUT1 C-terminus lacking the first PP domain (rat). The experiment is described as above.
In experiment [4] the target is GST fusion of the VGLUT1 C-terminus lacking both PP domains (rat). As to the kind of experiment: pull-down; GST fusions of the VGLUT1 C-terminus on glutathione sepharose beads, incubated with detergent-solubilized (2% TX-100) rat brain extract, RT 60 min; bound proteins by immunoblot, band intensity normalised to VG1 (Figs. 3C,D and 4B). Background: Immunoblotting shows a protein as a band on a membrane.

Experiment [5] concerns the target GST fusion of the VGLUT1 C-terminus lacking the second PP domain (rat). The experiment is described as above.
The target of experiment [6] is GST fusion of the VGLUT1 C-terminus lacking the first PP domain (rat). Described as above.
The target in experiment [7] is GST fusion of the VGLUT1 C-terminus, ΔWW/PAXA (rat). The description is as above.
Experiment [8] has as its target GST fusion of the VGLUT1 C-terminus, ΔWW/PAXY (rat). The experiment is described as above.
Experiment [9] concerns the target GST fusion of the VGLUT1 C-terminus, ΔSH3/1,2,3 (rat). Described as above.
The target in experiment [10] is GST fusion of the SH3 domain of sorting nexin 9 (Panomics) (human) (UniProt Q9Y5X1). As to the kind of experiment: pull-down; GST fusions of SH3 or WW domains on glutathione sepharose beads, incubated with detergent-solubilized (2% TX-100) rat brain extract, RT 60 min; bound VGLUT1 by immunoblot, band intensity normalised to lysate.
GST fusion of the SH3 domain of sorting nexin 9 (Panomics) (human), sequence (Q9Y5X1 1-62): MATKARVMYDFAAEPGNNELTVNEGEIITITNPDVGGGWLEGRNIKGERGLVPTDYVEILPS
Experiment [11] deals with GST fusion of the VGLUT1 C-terminus, SS/AA (rat) (UniProt Q62634). As to the kind of experiment: pull-down; 400 µg GST fusions of the VGLUT1 C-terminus on glutathione sepharose beads, rat brain extract in 100 mM Tris-HCl pH 7.5, 150 mM NaCl, 1 mM EGTA, 1% TX-100, 4°C 2 h; immunoblot (Fig. 6).
The target of experiment [12] is GST fusion of the VGLUT1 C-terminus, SS/DD (rat) (UniProt Q62634). The experiment is described as above.

Nedd4 from rat brain extract, sequence (Q62940 whole entry): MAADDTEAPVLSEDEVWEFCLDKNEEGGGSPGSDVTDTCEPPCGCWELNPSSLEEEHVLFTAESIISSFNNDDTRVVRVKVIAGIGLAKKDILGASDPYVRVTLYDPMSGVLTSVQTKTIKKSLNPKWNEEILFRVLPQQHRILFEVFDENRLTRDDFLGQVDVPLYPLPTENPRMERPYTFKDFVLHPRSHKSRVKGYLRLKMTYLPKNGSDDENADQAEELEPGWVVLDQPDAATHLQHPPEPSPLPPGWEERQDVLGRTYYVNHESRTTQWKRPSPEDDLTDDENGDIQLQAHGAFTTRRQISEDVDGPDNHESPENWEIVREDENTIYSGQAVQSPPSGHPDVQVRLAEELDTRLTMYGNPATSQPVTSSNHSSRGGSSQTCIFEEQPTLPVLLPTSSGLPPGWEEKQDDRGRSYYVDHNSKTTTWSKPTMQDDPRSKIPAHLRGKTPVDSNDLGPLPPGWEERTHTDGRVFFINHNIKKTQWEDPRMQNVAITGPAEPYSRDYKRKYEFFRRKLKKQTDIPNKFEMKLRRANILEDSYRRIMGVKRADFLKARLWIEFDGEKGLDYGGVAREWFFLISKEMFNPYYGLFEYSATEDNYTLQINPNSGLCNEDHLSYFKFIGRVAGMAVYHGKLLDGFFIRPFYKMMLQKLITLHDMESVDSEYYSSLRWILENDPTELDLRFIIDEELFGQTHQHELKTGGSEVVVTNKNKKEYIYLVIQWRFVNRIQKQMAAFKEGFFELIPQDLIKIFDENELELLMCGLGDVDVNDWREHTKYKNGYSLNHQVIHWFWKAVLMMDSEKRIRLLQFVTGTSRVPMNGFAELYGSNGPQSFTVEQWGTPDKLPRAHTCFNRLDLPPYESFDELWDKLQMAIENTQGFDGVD
myc-tagged Lyn, sequence (P25911 whole entry): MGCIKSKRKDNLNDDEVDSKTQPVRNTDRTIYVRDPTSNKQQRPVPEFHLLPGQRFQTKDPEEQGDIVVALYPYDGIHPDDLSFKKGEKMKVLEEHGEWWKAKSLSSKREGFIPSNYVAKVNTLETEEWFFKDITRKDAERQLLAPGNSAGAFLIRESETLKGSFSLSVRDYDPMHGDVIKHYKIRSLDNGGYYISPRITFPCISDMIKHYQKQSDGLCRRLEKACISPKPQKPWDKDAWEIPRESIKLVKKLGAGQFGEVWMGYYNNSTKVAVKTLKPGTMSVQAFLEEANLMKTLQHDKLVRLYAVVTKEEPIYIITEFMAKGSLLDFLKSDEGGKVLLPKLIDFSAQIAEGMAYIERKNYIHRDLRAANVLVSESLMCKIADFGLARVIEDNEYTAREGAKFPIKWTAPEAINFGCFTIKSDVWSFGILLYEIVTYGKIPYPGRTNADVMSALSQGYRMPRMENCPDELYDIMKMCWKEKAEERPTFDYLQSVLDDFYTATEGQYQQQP
clathrin adaptor protein AP-2 from rat brain extract, sequence (P18484 whole entry, looked up): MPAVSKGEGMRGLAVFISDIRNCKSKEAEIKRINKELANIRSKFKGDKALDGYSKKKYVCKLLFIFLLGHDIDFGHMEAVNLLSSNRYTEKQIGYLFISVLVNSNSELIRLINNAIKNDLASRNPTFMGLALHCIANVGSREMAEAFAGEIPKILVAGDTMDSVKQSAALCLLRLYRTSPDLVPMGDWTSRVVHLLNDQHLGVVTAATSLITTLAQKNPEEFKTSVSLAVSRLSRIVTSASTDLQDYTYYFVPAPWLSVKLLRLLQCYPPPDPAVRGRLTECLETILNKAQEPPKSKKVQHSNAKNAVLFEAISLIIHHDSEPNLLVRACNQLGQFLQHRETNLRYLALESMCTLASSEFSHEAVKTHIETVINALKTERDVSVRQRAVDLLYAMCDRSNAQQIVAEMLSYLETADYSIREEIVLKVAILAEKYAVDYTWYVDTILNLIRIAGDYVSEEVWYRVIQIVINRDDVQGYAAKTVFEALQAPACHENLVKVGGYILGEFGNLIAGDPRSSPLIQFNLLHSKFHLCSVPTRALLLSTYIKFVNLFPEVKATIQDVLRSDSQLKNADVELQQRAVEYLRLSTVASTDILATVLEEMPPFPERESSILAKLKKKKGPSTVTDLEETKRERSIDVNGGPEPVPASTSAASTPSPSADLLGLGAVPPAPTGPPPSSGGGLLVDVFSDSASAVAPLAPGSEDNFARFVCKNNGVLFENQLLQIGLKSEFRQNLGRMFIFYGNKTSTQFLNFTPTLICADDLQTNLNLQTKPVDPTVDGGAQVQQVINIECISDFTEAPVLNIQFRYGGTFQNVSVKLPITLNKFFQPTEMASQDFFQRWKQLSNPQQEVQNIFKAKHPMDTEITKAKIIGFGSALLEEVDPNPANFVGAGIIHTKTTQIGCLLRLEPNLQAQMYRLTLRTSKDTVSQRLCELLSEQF

For “myc-tagged Lyn (from UniProt P25911 1-512) (enzyme)”, the band intensity normalised to VG1 in experiment [1] was 0.0368 a.u; in experiment [2], 0.0282 a.u; in [3] it was 1.12 a.u.

In the case of “ponsin/c-Cbl interacting protein CAP from rat brain extract (from UniProt P84109 1-35) (natural protein)”, the band intensity normalised to VG1 stood at 0.225 a.u in [4], 0.062 a.u in experiment [5] and 2.24 a.u in [6].

For the substance “Atrophin Interacting Protein AIP4/Itch from rat brain extract (enzyme)”, the band intensity normalised to VG1 in experiment [5] was found to be 0.822 a.u; in experiment [7], 0.0669 a.u; in [8], 0.119 a.u; in [9] it was 0.99 a.u.

Turning to “Nedd4 from rat brain extract (from UniProt Q62940 1-887) (enzyme)”, the band intensity normalised to VG1 was 0.0821 a.u in experiment [4], 0.664 a.u in experiment [5] and 0.0459 a.u in [6].

In turn, “VGLUT1 from rat brain extract (from UniProt Q62634 1-560) (natural protein)” displayed a band intensity normalised to lysate in [10] of 0.111 a.u.

“clathrin adaptor protein AP-2 from rat brain extract (from UniProt P18484 1-938) (complex)”: the band intensity (a.u.) came to 0.674 a.u in experiment [11] and 1.76 a.u in experiment [12].

Consider “Nck from rat brain extract (natural protein)”, for which the band intensity normalised to VG1 in experiment [6] came out at 1.11 a.u.

The record behind these values is PMC4198130.
